Measurements reported in publication PMC4964977 (Biochemical Journal, 2016).
Square brackets hold non-standard residues; d marks the D form. Ends that are not written are not given here. * marks the point of attachment. Biotin = O=C1N[C@H]2[C@H](CS[C@H]2CCCCC(=O)*)N1; pS = N[C@@H](COP(=O)(O)O)C(=O)O

T1: PLM 20-mer RCKFNQQQRTGEPDEEEGTF (R41–F60), on membrane (mouse, covalently linked to the membrane)
T1 peptide: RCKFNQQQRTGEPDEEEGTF

T2: native NCX1(301–320) peptide synthesized on membrane (rat, covalently linked to the membrane)
T2 peptide: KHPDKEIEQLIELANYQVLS


Key:
[1] = target: T1, PLM 20-mer RCKFNQQQRTGEPDEEEGTF …; experiment: peptide or protein array
[2] = target: T2, native NCX1(301–320) peptide …; experiment: peptide or protein array

Row | binding result [1] | binding result [2] | Binder
1 | binds | – | Biotin-KQRGMIIEHEGDRPASKTEI [biotin–NCX1(235–254)]
2 | binds | – | Biotin-ARILKELKQKHPDKEIEQLI [biotin–NCX1(292–311)]
3 | – | binds | Biotin-KRCRCKFNQQQRTGEPDEEEGTFRSSIRRL[pS]SRRR (cysteine pairing not given here) [biotin–pSer68-PLMcyt]
4 | binds | – | Biotin-KHPDKEIEQLIELANYQVLS [biotin–NCX1(301–320)]
